In patent US20240368668A1, “SUBSTRATES AND BIOMARKERS OF ADAMTS7” (The Broad Institute, Inc., priority 2021, published 2024) one finds logFC.mEQ.over.Luc data, which are given here for 62 substances.

Square brackets hold non-standard residues; d marks the D form. Ends that are not written are not given here.

The target in one assay is T1, mouse ADAMTS7 (Mus musculus, UniProt Q68SA9, E373Q).
T1 construct: Full-length mouse Adamts7 1-1857 (Uniprot Q68SA9, WT or E373Q catalytic mutant); expressed in transfected cells; host or cells: Human Coronary Artery Smooth Muscle Cells (HCA-SMC, Lonza), adenovirus 50 MOI
T1 sequence (Q68SA9 221-1657 E373Q): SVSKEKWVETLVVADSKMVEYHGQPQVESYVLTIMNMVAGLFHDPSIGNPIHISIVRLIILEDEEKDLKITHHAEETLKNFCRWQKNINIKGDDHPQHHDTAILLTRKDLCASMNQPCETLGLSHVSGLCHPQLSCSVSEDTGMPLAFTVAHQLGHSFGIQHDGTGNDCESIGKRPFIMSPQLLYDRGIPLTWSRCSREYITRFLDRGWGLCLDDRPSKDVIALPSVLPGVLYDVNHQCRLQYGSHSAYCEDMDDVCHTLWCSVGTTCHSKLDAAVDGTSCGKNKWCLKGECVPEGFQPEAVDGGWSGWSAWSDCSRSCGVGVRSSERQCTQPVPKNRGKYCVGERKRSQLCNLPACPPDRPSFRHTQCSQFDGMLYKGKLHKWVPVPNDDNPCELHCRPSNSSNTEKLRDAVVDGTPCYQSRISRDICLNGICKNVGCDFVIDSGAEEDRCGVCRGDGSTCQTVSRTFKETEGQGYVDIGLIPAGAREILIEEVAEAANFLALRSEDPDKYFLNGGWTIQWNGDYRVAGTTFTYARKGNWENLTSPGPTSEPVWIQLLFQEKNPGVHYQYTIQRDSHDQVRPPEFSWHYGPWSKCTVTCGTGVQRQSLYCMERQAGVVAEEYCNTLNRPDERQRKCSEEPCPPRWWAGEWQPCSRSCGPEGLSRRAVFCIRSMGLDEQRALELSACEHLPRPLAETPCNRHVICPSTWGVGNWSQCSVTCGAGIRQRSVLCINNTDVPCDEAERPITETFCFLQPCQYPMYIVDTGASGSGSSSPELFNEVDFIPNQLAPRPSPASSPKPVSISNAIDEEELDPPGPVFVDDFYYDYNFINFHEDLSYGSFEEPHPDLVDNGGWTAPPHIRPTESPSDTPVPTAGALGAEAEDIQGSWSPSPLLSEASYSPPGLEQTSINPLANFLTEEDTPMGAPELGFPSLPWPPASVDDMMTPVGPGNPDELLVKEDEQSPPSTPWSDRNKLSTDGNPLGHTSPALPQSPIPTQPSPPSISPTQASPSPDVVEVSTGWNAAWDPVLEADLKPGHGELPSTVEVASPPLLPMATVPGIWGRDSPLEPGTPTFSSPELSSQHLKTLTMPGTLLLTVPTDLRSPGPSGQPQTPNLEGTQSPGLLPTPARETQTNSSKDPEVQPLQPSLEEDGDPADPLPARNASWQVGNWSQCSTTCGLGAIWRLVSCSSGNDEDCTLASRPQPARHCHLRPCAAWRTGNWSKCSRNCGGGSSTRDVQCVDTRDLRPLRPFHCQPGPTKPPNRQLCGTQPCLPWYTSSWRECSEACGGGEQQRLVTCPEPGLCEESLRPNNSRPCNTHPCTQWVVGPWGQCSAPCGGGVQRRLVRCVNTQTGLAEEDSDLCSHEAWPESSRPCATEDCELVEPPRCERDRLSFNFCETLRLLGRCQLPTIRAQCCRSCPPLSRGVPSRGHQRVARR
Description: TMT10 TAILS N-terminomics, SMC2 experiment (process replicates, trypsin/AspN digest). The class given is cell-based. The conditions noted are these: SMC2_TAILS HC; log fold change, mEQ over Luc. The method, boiled down: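 Full-length mouse ADAMTS7 (WT or E373Q mutant, C-terminal 3xFLAG) or luciferase was transduced via adenovirus, 50 MOI, into HCA-SMC (SMC1, SMC2) or HUVEC. SMC1: pooled media, technical triplicates 400 ug; SMC2: process triplicates 300 ug; HUVEC: process triplicates 200 ug, bFGF2 10 ng/ml.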
Regarding “ACTG1_105 (LTEAPLNPKANR; listed as Homo sapiens)”, the logFC.mEQ.over.Luc is −0.31.
Turning to “ACTN4_5 (HAANQSYQYGPSSAGNGAGGGGSMG; listed as Homo sapiens)”, the logFC.mEQ.over.Luc is on record as 0.00.
With “ADAM9_74 (GKEHIIHLER; listed as Homo sapiens)”, the logFC.mEQ.over.Luc is recorded as −0.18.
Same read-out and setting: the result for “ADAM10_86 (FKVETSNKVL; listed as Homo sapiens)” reads −0.29; that for “ADNP2_375 (SQPVGPVNK; listed as Homo sapiens)”, 4.60; that for “AMER2_654 (LAGTTIRATACH; listed as Homo sapiens)”, 0.05.
The same measure, in the same setting: the result for “APLP2_452 (LVETHLAR; listed as Homo sapiens)” reads 0.11; that for “APOA1_86 (EQLGPVTQEFW; listed as Homo sapiens)”, −0.07; that for “BMPER_43 (LTGSVAKCENEG; listed as Homo sapiens)”, −0.06.
Same read-out and setting: next, “CALU_176 (FTAFLHPEEY; listed as Homo sapiens)”: −0.01; “CAP1_300 (FSAPKPQTSPSPKR; listed as Homo sapiens)”: 0.09; “CCL2_28 (INAPVTCCYNFTNR; listed as Homo sapiens)”: −0.11.
In the case of “CEP192_728 (DKSTAGR; listed as Homo sapiens)”, the logFC.mEQ.over.Luc was −0.62.
Regarding “CTSB_109 (WAFGAVEAIS; listed as Homo sapiens)”, the logFC.mEQ.over.Luc is −0.08.
On the same count and under the same terms, next, “DBN1_434 (APVEPATA; listed as Homo sapiens)”: 0.03.
The same measure, in the same setting: next, “DIS3L_75 (FPELKGIIFMQTACQAVQHQR; listed as Homo sapiens)”: −0.02; “ECM1_38 (FQEVGYAAPPSPPLSR; listed as Homo sapiens)”: −0.02.
Still for that read-out and setting: the result for “ECM1_44 (AAPPSPPLSR; listed as Homo sapiens)” reads −0.28; that for “ECM1_108 (QEAVPLQK; listed as Homo sapiens)”, −0.22.
As for “EEF1G_23 (QYSGAQVR; listed as Homo sapiens)”, the logFC.mEQ.over.Luc is −0.12.
Same read-out and setting: next, “EIF4B_426 (QTGTSTTSSR; listed as Homo sapiens)”: 0.49; “EMSY_943 (QTVVQVLAVK; listed as Homo sapiens)”: 0.20.
On the same count and under the same terms, next, “FBLN2_665 (FSQVASNTIPLPLPQPNTCK; listed as Homo sapiens)”: −0.15.
“FLNA_689 (VNKPAEFTV; listed as Homo sapiens)”: the logFC.mEQ.over.Luc is recorded as −1.45.
On to “FLNC_2649 (FVGQKNSFTV; listed as Homo sapiens)”, for which the logFC.mEQ.over.Luc is reported as −0.06.
Still for that read-out and setting: the result for “FN1_35 ([code q]MVQPQSPVAVSQSKPGCY; not fully specified (residue 2); listed as Homo sapiens)” reads −0.09; that for “FN1_99 (DKYTGNTYR; listed as Homo sapiens)”, −0.08.
The same measure, in the same setting: the result for “FN1_607 (SSSGPVEVFIT; listed as Homo sapiens)” reads 0.45.
Same read-out and setting: next, “FN1_1693 (LQPTVEYVVSVYAQNPSG; listed as Homo sapiens)”: −0.07; “FN1_1780 (LQGLRPGSEYTVSVVALH; listed as Homo sapiens)”: −0.34; “FN1_1805 (LIGTQSTAIPAPT; listed as Homo sapiens)”: 0.71.
With “FN1_2113 (FVTHPGY; listed as Homo sapiens)”, the logFC.mEQ.over.Luc is listed as −0.19.
Substance “FOXG1_235 (LNKCFVKVPRHY; listed as Homo sapiens)” gave a logFC.mEQ.over.Luc of 0.07.
The same measure, in the same setting: the result for “FSTL_1290 (LQKHQETA; listed as Homo sapiens)” reads −0.28.
On the same count and under the same terms, the result for “HEG1_51 (GLELQLER; listed as Homo sapiens)” reads 0.25; that for “HEG1_224 (FQTKSGTAS; listed as Homo sapiens)”, 0.29.
The same measure, in the same setting: next, “KCND1_436 (RLAKSGTTNAFLQYKQNGGLE; listed as Homo sapiens)”: −0.14; “KRT28_2 (SLQFSNGSR; listed as Homo sapiens)”: −0.34; “LASP1_182 (SYGGYKEPAAPVSIQR; listed as Homo sapiens)”: −0.14.
Turning to “LOXL1_157 (SVSASAFASTYR; listed as Homo sapiens)”, the logFC.mEQ.over.Luc is −0.19.
On the same count and under the same terms, the result for “LOX_60 (LGSQYQPQR; listed as Homo sapiens)” reads −0.34.
Still for that read-out and setting: the result for “LOX_125 (FQAGYSTSR; listed as Homo sapiens)” reads 0.11.

The same assay, now with this note: log fold change, ADAMTS7 EQ over luciferase.
Consider “QSOX1_558 (VAAAPELAMGALELESR; listed as Homo sapiens)”, for which the logFC.mEQ.over.Luc is listed as −0.19.
Same read-out and setting: the result for “SDC4_106 (LEENEVIPKR; listed as Homo sapiens)” reads −0.35; that for “SERPINH1_27 (AAAPGTAEKLSPKAATLAER; listed as Homo sapiens)”, −0.69.
In turn, “SMOC1_35 (LISDRDPQCNLHCSR; listed as Homo sapiens)” came in with a logFC.mEQ.over.Luc of 0.14.
Substance “SPOCK1_126 (HWVGPSNLVK; listed as Homo sapiens)” yielded a logFC.mEQ.over.Luc of 0.36.
For “SRGN_50 (LEEKGPMFELLPGESNKIPR; listed as Homo sapiens)”, the logFC.mEQ.over.Luc is −0.07.
Still for that read-out and setting: the result for “SRGN_51 (EEKGPMFELLPGESNKIPR; listed as Homo sapiens)” reads −0.13.
Still for that read-out and setting: the result for “SRGN_60 (LPGESNKIPR; listed as Homo sapiens)” reads 0.32; that for “SRGN_62 (GESNKIPR; listed as Homo sapiens)”, −0.45.
With “STC1_37 (QNSAEVVR; listed as Homo sapiens)”, the logFC.mEQ.over.Luc was −0.22.
The same measure, in the same setting: the result for “STC2_239 (HGEAGHHLPEPSSR; listed as Homo sapiens)” reads −0.11; that for “STC2_244 (HHLPEPSSR; listed as Homo sapiens)”, −0.26; that for “TGFBI_24 (GPAKSPYQLVLQHSR; listed as Homo sapiens)”, 0.05.
Same read-out and setting: the result for “TGFBI_43 ([code q]HGPNVCAVQKVIGTNR; not fully specified; listed as Homo sapiens)” reads 0.10; that for “TGFBI_50 (AVQKVIGTNR; listed as Homo sapiens)”, 0.33; that for “TGFBI_208 (GIVTVNCAR; listed as Homo sapiens)”, 0.30.
On the same count and under the same terms, next, “TGFBI_276 (TLLAPT[code n]EAFEKIPSETLNR; not fully specified; listed as Homo sapiens)”: 0.09.
“TGFBI_497 (VLTPPMGTVMDVLKGDNR; not fully specified (residue 6); listed as Homo sapiens)” showed a logFC.mEQ.over.Luc of 0.14.
On the same count and under the same terms, next, “TGFBI_524 (SAGLTETLNR; listed as Homo sapiens)”: 0.18.
Still for that read-out and setting: the result for “TGFBI_534 (EGVYTVFAPTNEAFR; listed as Homo sapiens)” reads 0.09.
